Results published in patent US20210063414A1, “METHODS FOR PREVENTING AND/OR TREATING BONE LOSS CONDITIONS BY MODULATING IRISIN” (Dana-Farber Cancer Institute, Inc., priority 2018, published 2021).

Target: T1, MLO-Y4 cell surface proteins (Mus musculus, UniProt O88492)
T1 construct: endogenous in cells; host or cells: MLO-Y4
T1 sequence (O88492 1-1403): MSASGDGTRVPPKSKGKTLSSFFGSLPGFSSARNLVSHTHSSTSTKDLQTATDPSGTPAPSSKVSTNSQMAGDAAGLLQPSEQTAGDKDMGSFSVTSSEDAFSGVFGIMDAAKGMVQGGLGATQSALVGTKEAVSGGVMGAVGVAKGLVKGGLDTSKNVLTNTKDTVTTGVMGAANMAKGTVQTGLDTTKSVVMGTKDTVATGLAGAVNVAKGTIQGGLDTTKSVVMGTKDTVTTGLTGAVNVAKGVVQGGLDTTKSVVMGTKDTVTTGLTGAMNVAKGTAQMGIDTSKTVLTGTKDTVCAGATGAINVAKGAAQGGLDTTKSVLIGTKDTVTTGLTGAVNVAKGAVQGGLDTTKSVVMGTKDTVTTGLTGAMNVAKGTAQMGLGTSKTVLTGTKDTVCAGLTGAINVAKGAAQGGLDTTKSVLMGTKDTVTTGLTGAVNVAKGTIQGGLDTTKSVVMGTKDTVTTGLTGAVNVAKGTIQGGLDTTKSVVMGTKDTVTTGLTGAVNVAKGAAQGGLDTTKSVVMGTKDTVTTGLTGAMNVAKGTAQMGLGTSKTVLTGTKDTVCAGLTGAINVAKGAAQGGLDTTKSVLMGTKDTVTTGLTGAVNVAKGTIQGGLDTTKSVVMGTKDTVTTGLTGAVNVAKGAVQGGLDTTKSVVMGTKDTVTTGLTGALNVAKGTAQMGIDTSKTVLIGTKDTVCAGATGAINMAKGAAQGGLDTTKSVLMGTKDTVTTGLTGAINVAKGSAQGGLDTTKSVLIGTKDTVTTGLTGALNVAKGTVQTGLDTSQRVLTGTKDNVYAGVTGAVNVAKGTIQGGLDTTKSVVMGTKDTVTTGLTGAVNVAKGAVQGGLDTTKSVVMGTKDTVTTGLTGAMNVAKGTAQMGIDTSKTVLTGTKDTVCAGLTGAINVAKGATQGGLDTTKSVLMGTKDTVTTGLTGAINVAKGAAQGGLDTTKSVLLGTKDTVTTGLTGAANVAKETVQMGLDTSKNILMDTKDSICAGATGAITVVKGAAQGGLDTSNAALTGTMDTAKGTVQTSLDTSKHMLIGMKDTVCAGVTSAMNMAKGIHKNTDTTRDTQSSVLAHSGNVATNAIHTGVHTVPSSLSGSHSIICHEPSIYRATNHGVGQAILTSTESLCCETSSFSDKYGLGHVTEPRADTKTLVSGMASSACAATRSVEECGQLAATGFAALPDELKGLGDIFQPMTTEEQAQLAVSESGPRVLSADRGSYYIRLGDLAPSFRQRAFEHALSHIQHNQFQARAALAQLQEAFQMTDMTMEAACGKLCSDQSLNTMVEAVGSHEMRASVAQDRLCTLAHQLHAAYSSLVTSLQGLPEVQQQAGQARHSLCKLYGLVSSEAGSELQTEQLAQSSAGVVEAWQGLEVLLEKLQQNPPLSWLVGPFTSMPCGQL
Assay: Crosslinking/co-immunoprecipitation/mass spectrometry (TMT quantitative proteomics) to identify irisin receptors
Assay type: binding
Conditions: co-precipitated protein Plin4 (PLIN4_MOUSE)
Procedure, shortened: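 Relative protein abundance came from 6-plex TMT MS3 quantitation on an Orbitrap Fusion Lumos, after in-gel trypsin digestion of Coomassie-stained SDS-PAGE lanes. Input was a Ni-NTA pulldown (250 mM imidazole elution) of lysates from murine MLO-Y4 cells. These cells were treated on ice with His-tagged irisin or adipsin (10 nM, 20 min) in serum-free medium, then crosslinked with 1.5 mM DTSSP for 30 min.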

adipsin
TMT signal-to-noise ratio: 111.989
